From publication PMC6282390

What was measured:
Dicer WT (Homo sapiens) = experiment: EMSA; details: 5'-phosphate, 3'-OH; 50 mM Tris pH 7.6, 50 mM NaCl, 10% glycerol, 0.05% NP-40, 2 mM DTT, (0.5 mM EDTA for WT), 2 pM RNA (10 pM in Fig. 4 legend), 30 min at 4 °C
[1] = test system: Dicer D1320A/D1709A (Homo sapiens); experiment: EMSA; details: 5'-phosphate, 3'-OH; 50 mM Tris pH 7.6, 50 mM NaCl, 10% glycerol, 0.05% NP-40, 2 mM DTT, (0.5 mM EDTA for WT), 2 pM RNA (10 pM in Fig. 4 legend), 30 min at 4 °C

pre-let-7a-1
Kd (Dicer WT (Homo sapiens)): 5 nM
Kd [1]: 9 nM
